Target: T1, Recombinant human GST-Syt1-C2AB domain (human, UniProt P21579 81-422)
T1 construct: human synaptotagmin 1, cytoplasmic C2AB domains (C2A and C2B); Construct was a gift (Dr. Namgi Lee); also called C2AB fusion protein; GST-fused cytoplasmic (C2AB) domains of Syt1; not shown: GST, N-terminal, kept
Test: pull-down; GST fusion protein on beads incubated with cleared extracts of transfected HEK293T cells (1 mg at 1 mg/ml) for 4 h at 4 °C; lysis buffer 20 mM Tris-HCl pH 8.0, 137 mM NaCl, 2 mM EDTA, 1% Triton X-100; bound proteins detected by immunoblot for HA
Details: one partner purified

T1 sequence (P21579 81-422): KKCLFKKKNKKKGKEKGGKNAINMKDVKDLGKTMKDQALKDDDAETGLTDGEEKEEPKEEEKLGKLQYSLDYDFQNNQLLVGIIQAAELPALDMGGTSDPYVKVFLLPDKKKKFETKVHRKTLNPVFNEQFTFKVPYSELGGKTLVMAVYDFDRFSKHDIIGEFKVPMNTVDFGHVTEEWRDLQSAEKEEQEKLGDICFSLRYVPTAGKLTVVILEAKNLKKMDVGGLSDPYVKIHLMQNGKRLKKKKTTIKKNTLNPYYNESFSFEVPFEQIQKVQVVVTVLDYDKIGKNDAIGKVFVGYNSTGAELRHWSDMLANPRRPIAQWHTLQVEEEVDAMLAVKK

B1: HA-SGIP1α-mut (W771A/K781A) (natural protein, mouse, UniProt Q8VD37-6 1-854, looked up)
chain: MMEGLKKRTRKAFGIRKKEKDTDSTGSPDRDGMQGKKKAQKTQLLLTSCFWLRALSLTLSQQPSPHEPPYHSKAECAREGGKKASKKSNGAPNGFYAEIDWERYNSPELDEEGYSIRPEEPGSTKGKHFYSSSESEEEEESHKKFNIKIKPLQSKDVLKNAATVDELKASIGNIALSPSPVRKSPRRSPGAIKRNLSSEEVARPRRSTPTPELTSKKPLDDTLALAPLFGPPLESAFDEQKTEVLLDQPEIWGSGQPMNPSTESPELARPFPTGTPPPLPPKTVPATPPRTGSPLTVATGNDQAATEAKIEKLPSISDLDSIFGPVLSPKSVAVNTEEKWVHFSDASPEHVTPELTPREQVVTPPAASDIPADSPAPAPPGPTGSAGPPGPPGPRHVPSPLNLEEVQKKVAEQTFIKDDYLETLSSPKECGLGQRATPPPPPPPTYRTVVSSPGPGSGSGTGTTSGASSPARPATPLVPCSTTPPPPPPRPPSRPKLPPGKPGVGDVSRPFSPPIHSSSPPPIAPLARAESTSSISSTNSLSAATTPTVENEQPSLVWFDRGKFYLTFEGSSRGPSPLTMGAQDTLPVAAAFTETVNAYFKGADPSKCIVKITGEMVLSFPAGITRHFANNPSPAALTFRVVNSSRLEHVLPNPQLLCCDNTQNDANTKEFWVNMPNLMTHLKKVSEQKPQATYYNVDMLKYQVSAQGIQSTPLNLAVNWRCEPASTDLRIDYKYNTDAMSTAVALNNVQFLVPIDGGVTKLQAVLPPAVANAEQQRILWAIPDISQKSENGGVGSLLARFQLSEGPSKPSPLVVQFTSEGSTLSGCDIELVGAGYRFSLIKKRFAAGKYLADN
notes: numbers count on: SGIP1α (NM_001285852.1); Made by site-directed mutagenesis; also called HA-SGIP1α mutant W771A/K781A; W771A/K781A mutant; source: HEK293T, transfected, in lysate
- relative band intensity (SGIP1α = 1): 0.2 relative to SGIP1α
